Experimental data: patent publication US20230194545A1 (SEATTLE CHILDREN S HOSPITAL D B A SEATTLE CHILDREN S …, published 2023)

Molecular target: T1, WASp 289-304 signature peptide (human)
T1 construct: Endogenous tryptic peptide released from human dried blood spot digests
T1 peptide: LIYDFIEDQGGLEAVR
Experiment: immuno-SRM: peptide enrichment from normal control DBS digests, quantified by LC-SRM-MS

binding result: binds
B1: Anti-WASp 289 monoclonal antibody (antibody, V domains shown)
VH: QSVEESGGRLVTPGTPLTLTCTVSGFSLSSSDMTWVRQAPGKGLEYIGYMSSNDRPYYASWANGRFTISKTSTTVTLKITSPTTEDTATYFCCRGVLGTRSIHIWGPGTLVTVSL
VL: IVMTQTPSPVSAAVGGTVTINCQASESVYSDNRLSWYQQKPGQPPKQLIYGASTLASEVSSRFKGSGSGTQFTLTINDVVCDDAATYYCAGYKSSNQDGIGFGGGTEVVVKG
modifications: In the assay the antibody was chemically cross-linked (DMP) to Protein G magnetic beads; the letters do not carry this.
notes: Rabbit monoclonal antibody raised against the KLH-conjugated peptide; The printed light chain holds an X near its C-terminus; In the assay the antibody was cross-linked to Protein G magnetic beads
